Measured values as given in US20120171122A1 (published 2012).
No end group written: not given here. *: point of attachment. Biotin = O=C1N[C@H]2[C@H](CS[C@H]2CCCCC(=O)*)N1

Molecular target: T1, N-terminally biotinylated peptide HRRSARYLDTVL
T1 construct: Captured through its biotin on streptavidin coated onto the ELISA wells; also called ligand of NHERF PDZ1 mutant H9
T1 peptide: Biotin-HRRSARYLDTVL
Assay: ELISA; serial dilutions of GST-PDZ fusion on biotinylated peptide captured on streptavidin-coated wells; anti-His HRP detection
Protocol: The GST-PDZ fusion protein expressed by clone H2 was partially characterized. The DNA of clone H2 was transformed into E. coli strain BL21 [DE3] and the resulting transformant induced in 1 mL culture volume using 0.1 mM IPTG for 2.5 hours at 30° C. with shaking at 300 rpm. The cells were harvested from the culture medium and lysed using BugBuster (Novagen). Batch affinity purification was carried out using 50 μl of glutathione affinity resin (Novagen), eluting the bound protein in reduced glutathione elution buffer. […] The eluted protein was tested by ELISA for binding to N-terminally biotinylated peptide […] (SEQ ID NO: 14) bound to 0.1 μg of streptavidin coated onto each well of an ELISA plate. Serial dilutions of the protein were added to wells in which the peptide was present or absent (negative controls) and immuno-detection of a C-terminal hexahistidine tag provided by the modified pGEX-2TK vector was carried out using a horseradish peroxidase-conjugated antibody (Roche).

B1: GST-PDZ fusion protein expressed by clone H2 (NHERF PDZ1 loop-variant H2, CHPQFC inserted in loop β23 of NHERF PDZ1 mutant H9) (designed binder, not shown: a dimerising Fc or GST; large carriers; small tags and cut ends)
chain: LPRLCCLEKGPNGYGFHLHGEKGCHPQFCKVGQYIGLVVPGSPAEKAGLLAGDRLVEVNGENVEKETHQQVVSRIRAALNAVCLLVVDPE
notes: Partially purified on glutathione resin from induced E. coli BL21[DE3]; also called PDZ loop-variant H2; NHERF PDZ loop-variant H2
binding result: binds
